The target of data set [1] is T1, cystathionine γ-lyase (PaCGL) (Pseudomonas aeruginosa, UniProt Q9I6A0).
T1 construct: gene PA0400; 394-residue PaCGL (PAO1_PA0400), 6x-His tagged; homotetramer
The data set is described as follows: intrinsic fluorescence titration of apo-PaCGL; […] Å crystal structure. Type of data set: binding.

Data set [2] has as its target PaCGL F114A variant, N-terminal 6x-His tag (Pseudomonas aeruginosa). The data set is described as follows: SEC; gel filtration on Sephacryl S-200 16/60 HR in 20 mM sodium phosphate pH 8.0, 150 mM NaCl, 0.1 mM DTT; calibration curve; self-association (tetramer).
In data set [3] the target is PaCGL F114N variant ("humanized"), N-terminal 6x-His tag (Pseudomonas aeruginosa). Described as above.
Data set [4] deals with N[C@@H](CCSC[C@H](N)C(=O)O)C(=O)O. The data set is described as follows: DTNB assay steady-state kinetics (Km). It is filed as biochemical, Pseudomonas aeruginosa. As to conditions: PLP PLP-containing active site.
The next data set relates to N[C@@H](CS)C(=O)O. The data set is described as follows: purified protein. Type of data set: biochemical, Pseudomonas aeruginosa. As to conditions: PLP PLP-containing active site.
For data set [5], the target named is cystathionine γ-lyase from Pseudomonas aeruginosa (PaCGL), wild type, N-terminal 6x-His tag (Pseudomonas aeruginosa). Briefly: SEC; gel filtration on Sephacryl S-200 16/60 HR in 20 mM sodium phosphate pH 8.0, 150 mM NaCl, 0.1 mM DTT; calibration curve; self-association (tetramer). For orientation: SEC sorts molecules by how far they enter the pores of the column.

Substrate in data set [6]: N[C@@H](CCSC[C@H](N)C(=O)O)C(=O)O
The data set is described as follows: DTNB assay steady-state kinetics (Km); UV-Vis and CD spectra; LC-MS/MS. Type of data set: biochemical, Pseudomonas aeruginosa. As to conditions: PLP PLP-containing active site (chamber-1).

Substrate in the data set “purified protein”: N[C@@H](CS)C(=O)O
Briefly: purified protein. Type of data set: biochemical, Pseudomonas aeruginosa. As to conditions: PLP amino acid site […] of the active site (second L-Cys at site […]).

Substrate in data set [7]: N[C@@H](CCS)C(=O)O
Briefly: lead acetate H2S assay kinetics (Km); LC-MS/MS. It is filed as biochemical, Pseudomonas aeruginosa. As to conditions: PLP PLP-containing active site.

The term Kd denotes the constant that tells how readily two partners part at equilibrium. Lower therefore signals a tighter complex. In [1], `Cc1ncc(COP(=O)(O)O)c(C=O)c1O` [PLP] returned a Kd of 150 ± 10 nM.
One may read the stoichiometry N as a count of units in the complex or per binding partner. In turn, “PaCGL F114A variant, N-terminal 6x-His tag (enzyme)” showed a stoichiometry N in [2] of 4.
Take “PaCGL F114N variant ("humanized"), N-terminal 6x-His tag (enzyme)”: the stoichiometry N in data set [3] was 4.
Broadly, the Km is the substrate concentration at which the rate is half of its maximum. The term kcat denotes the number of substrate molecules converted per active site and unit of time at saturation. One may read the kcat/Km as the turnover number divided by the Michaelis constant. With “cystathionine γ-lyase (PaCGL) (Pseudomonas aeruginosa PAO1; F114A)”, in [4], the Michaelis constant (Km) was found to be 600 ± 100 µM, the kcat amounted to 3.2 ± 0.2 s⁻¹ and the kcat/Km came out at 5300 ± 1200 M⁻¹ s⁻¹. For the same molecule, in the data set with N[C@@H](CS)C(=O)O, the Km is 490 ± 10 µM, the kcat came out at 0.13 ± 0.01 s⁻¹ and the kcat/Km came to 270 ± 30 M⁻¹ s⁻¹.
For “cystathionine γ-lyase (PaCGL) (Pseudomonas aeruginosa PAO1; F114N)”, in [4], the Km was 500 ± 100 µM, the kcat stood at 3.2 ± 0.1 s⁻¹ and the catalytic efficiency (kcat/Km) turned out to be 6400 ± 1500 M⁻¹ s⁻¹. Moreover, in the data set on N[C@@H](CS)C(=O)O, the Km was determined as 1600 ± 300 µM, the kcat is 0.38 ± 0.06 s⁻¹ and the kcat/Km stood at 240 ± 80 M⁻¹ s⁻¹.
With “cystathionine γ-lyase from Pseudomonas aeruginosa (PaCGL), wild type, N-terminal 6x-His tag (enzyme)”, the stoichiometry N in data set [5] is 4.

B1: cystathionine γ-lyase (PaCGL) (Pseudomonas aeruginosa PAO1) (protein)
chain: MSQHDQHPDAPAQAFATRVIHAGQAPDPSTGAIMPPIYANSTYIQESPGVHKGLDYGRSHNPTRWALERCVADLEGGTQAFAFASGLAAISSVLELLDAGSHIVSGNDLYGGTFRLFERVRRRSAGHRFSFVDPTDLQAFEAALTPETRMVWVETPSNPLLRLTDLRAIAQLCRARGIISVADNTFASPYIQRPLELGFDVVVHSTTKYLNGHSDVIGGIAIVGDNPDLRERLGFLQNSVGAISGPFDAFLTLRGVKTLALRMERHCSNALALAQWLERQPQVARVYYPGLASHPQHELAKRQMRGFGGMISLDLRCDLAGARRFLENVRIFSLAESLGGVESLIEHPAIMTHASIPAETRADLGIGDSLIRLSVGVEALEDLQADLAQALAKI
notes: PaCGL with N-terminal 6x-His tag
In the case of B1, in data set [6], the Km was found to be 300 ± 40 µM, the kcat came to 5.2 ± 0.2 s⁻¹ and the kcat/Km amounted to 17000 ± 3000 M⁻¹ s⁻¹. In “purified protein”, the Km worked out at 430 ± 30 µM. For the same molecule, in data set [7], the Km worked out at 1700 ± 300 µM, the kcat was found to be 0.42 ± 0.04 s⁻¹ and the kcat/Km worked out at 250 ± 70 M⁻¹ s⁻¹.

Values taken from article PMC11039470, “Catalytic specificity and crystal structure of cystathionine γ-lyase from Pseudomonas aeruginosa” (Scientific Reports, 2024).
